For 23 sequences, self-aminoacylation results are on record in the supplement of paper PMC9233669.

One data set concerns biotinyl-Phe-oxazolone. Nature of the data set: self-aminoacylation, catalytic enhancement (BFO) (fold over background); higher = more active; k-Seq, kA / k0A0; sequences stand for … in GGGAAUGGAUCCACAUCUACGAAUUC…UUCACUGCAGACUUGACGAAGCUG
Summed up:
(§1)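 Working in 50 μL HEPES/NaCl/KCl/MgCl2/CaCl2 buffer with 5% acetonitrile at pH 6.9–7.0, mutagenized RNA pools (0.43 μM; 21-nt variable region) were reacted with 2–1250 μM of each biotinyl-aminoacyl-oxazolone for 90 minutes at room temperature. Streptavidin capture followed, with quantification by triplicate qPCR and Illumina sequencing. Catalytic enhancement is reported as median kA over the uncatalyzed rate, the low-activity peak of a bimodal Gaussian fit to the data.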

The next data set deals with biotinyl-Ile-oxazolone. Nature of the data set: self-aminoacylation, catalytic enhancement (BIO) (fold over background); higher = more active; k-Seq, kA / k0A0; sequences stand for … in GGGAAUGGAUCCACAUCUACGAAUUC…UUCACUGCAGACUUGACGAAGCUG
Summed up:
as §1

The test system of a further data set is biotinyl-Met-oxazolone. Nature of the data set: self-aminoacylation, catalytic enhancement (BMO) (fold over background); higher = more active; k-Seq, kA / k0A0; sequences stand for … in GGGAAUGGAUCCACAUCUACGAAUUC…UUCACUGCAGACUUGACGAAGCUG
Put shortly:
as §1

The subject of another data set is biotinyl-Val-oxazolone. Put plainly: self-aminoacylation, catalytic enhancement (BVO) (fold over background); higher = more active; k-Seq, kA / k0A0; sequences stand for … in GGGAAUGGAUCCACAUCUACGAAUUC…UUCACUGCAGACUUGACGAAGCUG
Put shortly: as §1

A further data set has as its system biotinyl-Leu-oxazolone. Nature of the data set: self-aminoacylation, catalytic enhancement (BLO) (fold over background); higher = more active; k-Seq, kA / k0A0; sequences stand for … in GGGAAUGGAUCCACAUCUACGAAUUC…UUCACUGCAGACUUGACGAAGCUG
Put shortly:
as §1

In another data set the test system is biotinyl-Trp-oxazolone. Put plainly: self-aminoacylation, catalytic enhancement (BWO) (fold over background); higher = more active; k-Seq, kA / k0A0; sequences stand for … in GGGAAUGGAUCCACAUCUACGAAUUC…UUCACUGCAGACUUGACGAAGCUG
Put shortly:
as §1

This sample holds only a part of the variants without activity.

Regarding “CUACUUCAAGCAAUCGGUUUG [Fam1A.1 aminoacylation ribozyme variant]”, the self-aminoacylation in the data set with biotinyl-Phe-oxazolone worked out at 11.5; in the data set with biotinyl-Ile-oxazolone it was 1.11; in the data set with biotinyl-Met-oxazolone, 0.981; with biotinyl-Val-oxazolone, 1.03; with biotinyl-Leu-oxazolone, 1.35; with biotinyl-Trp-oxazolone, 8.79.

As for “AUUACCCGGGCCAUCGAGUGA [Fam2.1 aminoacylation ribozyme variant]”, the self-aminoacylation in the data set with biotinyl-Phe-oxazolone was found to be 41.7; in the data set on biotinyl-Ile-oxazolone it was 4.18; in the data set with biotinyl-Met-oxazolone, 8.49; with biotinyl-Val-oxazolone, 5.47; in the data set with biotinyl-Leu-oxazolone it was 10.1; in the data set with biotinyl-Trp-oxazolone, 8.23.

For “AUUCACCUACAUCAUCGGGUG [Fam2.2 aminoacylation ribozyme variant]”, the self-aminoacylation with biotinyl-Phe-oxazolone turned out to be 22.1; in the data set with biotinyl-Ile-oxazolone, 2.19; in the data set with biotinyl-Met-oxazolone it was 3.63; in the data set on biotinyl-Val-oxazolone it was 2.06; with biotinyl-Leu-oxazolone, 3.91; with biotinyl-Trp-oxazolone, 3.07.

Turning to “CCACACUUCAAGCAUUCGGAC [Fam1B.1 aminoacylation ribozyme variant]”, the self-aminoacylation in the data set on biotinyl-Phe-oxazolone was found to be 0.829; in the data set with biotinyl-Ile-oxazolone it was 1.35; in the data set on biotinyl-Met-oxazolone it was 0.977; in the data set on biotinyl-Val-oxazolone, 1.29; in the data set on biotinyl-Leu-oxazolone it was 0.681; with biotinyl-Trp-oxazolone, 0.71.

For “AUUCACUGAGGUCAUCGGGUG [Fam2.2 aminoacylation ribozyme variant]”, the self-aminoacylation in the data set with biotinyl-Phe-oxazolone came to 55.7; in the data set with biotinyl-Ile-oxazolone it was 4.51; in the data set on biotinyl-Met-oxazolone it was 7.22; in the data set with biotinyl-Val-oxazolone, 4.37; in the data set with biotinyl-Leu-oxazolone it was 9.09; with biotinyl-Trp-oxazolone, 5.64.

As for “AAGUUGGCUAAGAGUCGCAAG [Fam3.1 aminoacylation ribozyme variant]”, the self-aminoacylation amounted to 1.91 in the data set on biotinyl-Phe-oxazolone; 2.02 with biotinyl-Ile-oxazolone; 1.68 with biotinyl-Met-oxazolone; 1.53 with biotinyl-Val-oxazolone; 1.98 with biotinyl-Leu-oxazolone; 2.13 with biotinyl-Trp-oxazolone.

On to “AUUCACCUAGGUCAGAGGGUG [Fam2.2 aminoacylation ribozyme variant]”, for which the self-aminoacylation in the data set with biotinyl-Phe-oxazolone stood at 4.38; in the data set with biotinyl-Ile-oxazolone, 1.1; in the data set with biotinyl-Met-oxazolone it was 1.36; in the data set on biotinyl-Val-oxazolone, 1.14; in the data set on biotinyl-Leu-oxazolone, 1.49; in the data set on biotinyl-Trp-oxazolone, 1.68.

For “AAGUUCGCUACUAGUCGCAAG [Fam3.1 aminoacylation ribozyme variant]”, the self-aminoacylation stood at 2.28 in the data set on biotinyl-Phe-oxazolone; 2.08 in the data set on biotinyl-Ile-oxazolone; 1.67 in the data set with biotinyl-Met-oxazolone; 1.79 with biotinyl-Val-oxazolone; 1.5 in the data set on biotinyl-Leu-oxazolone; 1.34 in the data set on biotinyl-Trp-oxazolone.

For “AAGUUUACUAACAGUCGCAAG [Fam3.1 aminoacylation ribozyme variant]”, the self-aminoacylation in the data set with biotinyl-Phe-oxazolone worked out at 2.91; in the data set with biotinyl-Ile-oxazolone, 1.58; with biotinyl-Met-oxazolone it was 1.48; with biotinyl-Val-oxazolone it was 1.63; in the data set with biotinyl-Leu-oxazolone, 1.95; in the data set on biotinyl-Trp-oxazolone, 1.38.

On to “CCUUACUUCAAGCAAUCGGUC [Fam1B.1 aminoacylation ribozyme variant]”, for which the self-aminoacylation in the data set on biotinyl-Phe-oxazolone came out at 31.6; with biotinyl-Ile-oxazolone, 1.09; with biotinyl-Met-oxazolone it was 1.06; in the data set with biotinyl-Val-oxazolone it was 1.08; in the data set with biotinyl-Leu-oxazolone, 1.3; in the data set on biotinyl-Trp-oxazolone, 13.

Consider “CUUACCCUGGUCAUCGAGUGG [Fam2.1 aminoacylation ribozyme variant]”, for which the self-aminoacylation was found to be 16.9 with biotinyl-Phe-oxazolone; 3.47 with biotinyl-Ile-oxazolone; 8.78 in the data set on biotinyl-Met-oxazolone; 3.74 in the data set on biotinyl-Val-oxazolone; 8.35 in the data set on biotinyl-Leu-oxazolone; 7.54 with biotinyl-Trp-oxazolone.

Take “AUUACCCUGCUCAUCGCGUGA [Fam2.1 aminoacylation ribozyme variant]”: the self-aminoacylation came to 152 in the data set with biotinyl-Phe-oxazolone; 7.11 with biotinyl-Ile-oxazolone; 17.1 in the data set on biotinyl-Met-oxazolone; 7.29 in the data set on biotinyl-Val-oxazolone; 16.4 in the data set on biotinyl-Leu-oxazolone; 16.9 in the data set on biotinyl-Trp-oxazolone.

“AUUACCCGGGUCAUCGAGCGA [Fam2.1 aminoacylation ribozyme variant]”: the self-aminoacylation with biotinyl-Phe-oxazolone is 1.09; with biotinyl-Ile-oxazolone, 2.08; with biotinyl-Met-oxazolone, 1.97; in the data set with biotinyl-Val-oxazolone, 2.18; in the data set with biotinyl-Leu-oxazolone, 2.22; in the data set on biotinyl-Trp-oxazolone, 1.55.

Turning to “CUUAACCUAGGUCAUCGGGUG [Fam2.2 aminoacylation ribozyme variant]”, the self-aminoacylation in the data set on biotinyl-Phe-oxazolone was 15.8; in the data set on biotinyl-Ile-oxazolone, 2.91; in the data set on biotinyl-Met-oxazolone it was 4.25; with biotinyl-Val-oxazolone, 2.69; in the data set with biotinyl-Leu-oxazolone, 4.78; in the data set on biotinyl-Trp-oxazolone, 4.21.

“CCACACUUCAAACAAGCGGUC [Fam1B.1 aminoacylation ribozyme variant]”: the self-aminoacylation in the data set with biotinyl-Phe-oxazolone is 0.971; in the data set on biotinyl-Ile-oxazolone, 0.922; with biotinyl-Met-oxazolone it was 0.68; in the data set with biotinyl-Val-oxazolone, 0.746; in the data set on biotinyl-Leu-oxazolone it was 0.728; in the data set on biotinyl-Trp-oxazolone, 0.603.

For the sequence “CUUCUUCAAACAAUCGGCCUG [Fam1A.1 aminoacylation ribozyme variant]”, the self-aminoacylation with biotinyl-Phe-oxazolone is 31.1; in the data set with biotinyl-Ile-oxazolone, 1.34; in the data set on biotinyl-Met-oxazolone it was 1.72; in the data set on biotinyl-Val-oxazolone, 1.48; in the data set on biotinyl-Leu-oxazolone, 1.88; in the data set on biotinyl-Trp-oxazolone, 28.5.

Turning to “CUACUACAAACAAUCUGUCUG [Fam1A.1 aminoacylation ribozyme variant]”, the self-aminoacylation in the data set with biotinyl-Phe-oxazolone stood at 0.733; in the data set with biotinyl-Ile-oxazolone it was 0.787; in the data set with biotinyl-Met-oxazolone, 0.624; in the data set with biotinyl-Val-oxazolone, 0.835; in the data set on biotinyl-Leu-oxazolone, 0.647; in the data set on biotinyl-Trp-oxazolone, 0.45.

On to “AUUACUCUGGUCAUCGAGUAA [Fam2.1 aminoacylation ribozyme variant]”, for which the self-aminoacylation in the data set on biotinyl-Phe-oxazolone came out at 1.42; in the data set with biotinyl-Ile-oxazolone, 2.21; with biotinyl-Met-oxazolone, 2.23; in the data set on biotinyl-Val-oxazolone, 1.79; with biotinyl-Leu-oxazolone, 1.92; in the data set on biotinyl-Trp-oxazolone, 2.27.

In the case of “GUUCAGCUAGGUCAUCGGGUG [Fam2.2 aminoacylation ribozyme variant]”, the self-aminoacylation turned out to be 25 with biotinyl-Phe-oxazolone; 3.97 in the data set on biotinyl-Ile-oxazolone; 3.72 in the data set on biotinyl-Met-oxazolone; 4.11 with biotinyl-Val-oxazolone; 5.08 in the data set on biotinyl-Leu-oxazolone; 5.82 with biotinyl-Trp-oxazolone.

Take “AUUAACCUAGGUAAUCGGGUG [Fam2.2 aminoacylation ribozyme variant]”: the self-aminoacylation with biotinyl-Phe-oxazolone amounted to 12.5; with biotinyl-Ile-oxazolone, 1.78; in the data set on biotinyl-Met-oxazolone it was 2.62; in the data set on biotinyl-Val-oxazolone, 1.66; in the data set on biotinyl-Leu-oxazolone, 2.3; in the data set with biotinyl-Trp-oxazolone, 2.42.

“AAGUUUGCUAAGAGUCGGAAG [Fam3.1 aminoacylation ribozyme variant]”: the self-aminoacylation was found to be 1.35 in the data set with biotinyl-Phe-oxazolone; 0.879 with biotinyl-Ile-oxazolone; 0.956 in the data set with biotinyl-Met-oxazolone; 0.923 with biotinyl-Val-oxazolone; 0.64 with biotinyl-Leu-oxazolone; 1.4 in the data set on biotinyl-Trp-oxazolone.

Turning to “AAGUUGGCUAAUAGUGGCAAG [Fam3.1 aminoacylation ribozyme variant]”, the self-aminoacylation turned out to be 0.667 with biotinyl-Phe-oxazolone; 0.654 in the data set on biotinyl-Ile-oxazolone; 0.931 with biotinyl-Met-oxazolone; 0.731 in the data set on biotinyl-Val-oxazolone; 0.655 with biotinyl-Leu-oxazolone; 1.13 in the data set with biotinyl-Trp-oxazolone.

As to “CCACAAUUCAAGCAAGCGGUC [Fam1B.1 aminoacylation ribozyme variant]”, the self-aminoacylation in the data set with biotinyl-Phe-oxazolone was 0.932; in the data set on biotinyl-Ile-oxazolone it was 1.3; in the data set on biotinyl-Met-oxazolone it was 1.3; with biotinyl-Val-oxazolone, 1.42; in the data set with biotinyl-Leu-oxazolone, 0.998; in the data set with biotinyl-Trp-oxazolone, 0.509.
